From US9739733B2, “Methods for monitoring tight clot formation” (T2 Biosystems, Inc., priority 2012, dated 2017)

Key:
[1] = test system: whole blood clot; experiment: T2Coagulation / TEG LY30 fibrinolysis in healthy patient blood; type: cell-based, human; conditions: kaolin runs
Description: Five different healthy patient samples were used to test whether T2Coagulation was sensitive to fibrinolysis. Addition of tissue plasminogen activator (TPA) was used to simulate fibrinolysis by adding it at two levels to healthy patient blood. TPA cleaves fibrin as it forms. It was observed that fibrinolysis can be detected within 10 minutes on T2Coagulation, which is less than half the time required for detection on TEG. For all five patients there was a clear difference between healthy and fibrinolytic samples.
There are several potential features that can be used for this correlation. Three that were investigated were the difference between (i) the minimum and maximum T2B values (FIG. 13), (ii) the average of the T2B values over the final 25 minutes of the T2B curves, and (iii) the T2B values at 10 minutes. All had correlations with R^2 values between 0.72 and 0.79. The correlation plots show a higher sensitivity of T2Coagulation for fibrinolysis than TEG. This can be seen by the groupings for the different levels of fibrinolysis in FIG. 13. The healthy patient samples are circled with the solid line. […] The T2Coagulation T2B term can be detected in as little as 10 minutes, which is much faster than the TEG LY30 term can be detected, indicating the utility of the T2Coagulation signal for more rapid measurement of fibrinolysis.

[2] = test system: whole blood clot; experiment: T2MR whole blood fibrinolysis with spiked TPA; type: cell-based, human; conditions: 100 U/mL TPA, blood from a healthy donor
Description: The T2MR surface is also sensitive to whole blood fibrinolysis. To assess this, healthy donor samples were spiked with tissue plasminogen activator (TPA).
TPA was added at 100 U/mL to blood from a healthy donor. In the absence of TPA (see FIG. 27a) two stable peaks form at the expected clotting time. […] Both the instability and the distance between the final T2 peaks indicate sensitivity to fibrinolysis induced by the presence of TPA.
The T2MR effect on fibrinolysis was expressed in AU values (arbitrary units; see FIG. 27c) obtained by calculating the difference between the maximum and minimum T2 value observed for the clot signal (or T2B) in the T2 time curve.
Fibrinolysis was monitored by T2 magnetic resonance (T2MR) in five patient blood samples with and without the addition of TPA (100 U/mL) (FIG. 27c). […] All other samples required addition of TPA to induce fibrinolysis, as confirmed by the reference method.

[3] = test system: IIb/IIIa receptor of human platelets; experiment: TEG clot strength (MA) of whole blood spiked with abciximab; type: cell-based; conditions: patient sample 29494
Description: The clotting of a whole blood sample was perturbed using the antithrombotic agent abciximab (ReoPro®). Abciximab is the Fab fragment of a human-murine monoclonal antibody that binds to the IIb/IIIa receptor of human platelets and inhibits platelet aggregation. Abciximab serves to inhibit the retraction of a clot during the clotting process.
Samples containing abciximab were prepared according to the following procedure and referenced in the application and Figures by a number corresponding to the concentration of abciximab in units of μg/mL.
1. Blood was drawn from normal donors into six citrate tubes. Normal donors must not have taken aspirin or any anti-platelet drug in the past two weeks.
2. The six tubes of blood were pooled and mixed gently by inversion eight to ten times. Samples were used within two hours of collection.
3. A abciximab solution (10 mg/5 mL) was diluted at a ratio of 1:4 using saline as a diluent to form “solution 1.”
4. The blood was spiked with solution 1 and saline according to Table 5
5. The samples were allowed to sit for at least five minutes prior to running any sample in a T2reader or Bruker minispec.
In a second experiment, five aliquots of patient sample 29494 were prepared with different concentrations (0, 2, 4, 8, and 0 μg/mL) of abciximab prior to initiation of the clotting process. The T2 relaxations times for the samples were measured in series, with each set of measurements lasting approximately 50 min. The first sample tested and the final sample tested contained no added abciximab. The collected T2 decay curves were processed using Inverse Laplace Transforms, as described in Example 18. […] The difference in the curve shape between the first sample run and the final sample run, both of which contained no added abciximab, may be evidence of an effect of sample age on the T2 time distribution. The corresponding TEG-determined MA values for these samples was 60.7, 61.4, 30.4, and 22.0, respectively.

[4] = test system: platelet activity in whole blood; experiment: T2 relaxation spectra / 3D plots of clotting whole blood spiked with abciximab; type: cell-based, human
Description: T2 relaxation rate data was collected from CK blood samples drawn from healthy patients. For each sample, a series of T2 decay curves were measured over a period of 50 minutes. The decay curves were each processed using an Inverse Laplace Transform (ILT CONTIN) to provide an array of curves showing T2 intensity as a function of T2 time. […] FIG. 20 illustrates the 3D data sets for patient samples 29328 and 29350 collected on a Bruker minispec. […] At a time between 5 minutes and 30 minutes, the single water population diverged into two significant water populations. These two water populations correspond to the two components of the clot, i.e., the retracted clot and the serum surrounding the retracted clot. […] For some samples these two peaks were not entirely resolved. The correlation between the water populations and the components of the clotted sample was confirmed by separating the retracted clot from the surrounding serum and separately measuring the T2 data for these two components.
In a first experiment, four aliquots of patient sample 29488 were prepared with different concentrations of abciximab (0, 2, 4, and 8 μg/mL) prior to initiation of the clotting process. The T2 relaxation times for the four samples were measuring over the course of clot formation and the corresponding 3D plots were determined using the technique described in Example 13. […] This physical change is evidenced and quantified in the corresponding 3D plots (FIG. 21), showing fast exchange of water within the uniform sample at the highest concentration of abciximab.
In a second experiment, five aliquots of patient sample 29494 were prepared with different concentrations (0, 2, 4, 8, and 0 μg/mL) of abciximab prior to initiation of the clotting process. The T2 relaxations times for the samples were measured in series, with each set of measurements lasting approximately 50 min. […] The corresponding TEG-determined MA values for these samples was 60.7, 61.4, 30.4, and 22.0, respectively.

B1: Cathflo®: recombinant alteplase manufactured by Genentech (protein, UniProt P00750 36-562, looked up)
Tissue-type plasminogen …: SYQVICRDEKTQMIYQQHQSWLRPVLRSNRVEYCWCNSGRAQCHSVPVKSCSEPRCFNGGTCQQALYFSDFVCQCPEGFAGKCCEIDTRATCYEDQGISYRGTWSTAESGAECTNWNSSALAQKPYSGRRPDAIRLGLGNHNYCRNPDRDSKPWCYVFKAGKYSSEFCSTPACSEGNSDCYFGNGSAYRGTHSLTESGASCLPWNSMILIGKVYTAQNPSAQALGLGKHNYCRNPDGDAKPWCHVLKNRRLTWEYCDVPSCSTCGLRQYSQPQFRIKGGLFADIASHPWQAAIFAKHRRSPGERFLCGGILISSCWILSAAHCFQERFPPHHLTVILGRTYRVVPGEEEQKFEVEKYIVHKEFDDDTYDNDIALLQLKSDSSRCAQESSVVRTVCLPPADLQLPDWTECELSGYGKHEALSPFYSERLKEAHVRLYPSSRCTSQHLLNRTVTDNMLCAGDTRSGGPQANLHDACQGDSGGPLVCLNDGRMTLVGIISWGLGCGQKDVPGVYTKVTNYLDWIRDNMRP
modifications: alteplase
notes: recombinant alteplase manufactured by Genentech
- degree of fibrinolysis ([1]; 60 ng/mL): partially fibrinolytic
- degree of fibrinolysis ([1]; 118 ng/mL): fully fibrinolytic

B2: TPA: tissue plasminogen activator (protein, UniProt P00750 36-562, looked up)
Tissue-type plasminogen …: SYQVICRDEKTQMIYQQHQSWLRPVLRSNRVEYCWCNSGRAQCHSVPVKSCSEPRCFNGGTCQQALYFSDFVCQCPEGFAGKCCEIDTRATCYEDQGISYRGTWSTAESGAECTNWNSSALAQKPYSGRRPDAIRLGLGNHNYCRNPDRDSKPWCYVFKAGKYSSEFCSTPACSEGNSDCYFGNGSAYRGTHSLTESGASCLPWNSMILIGKVYTAQNPSAQALGLGKHNYCRNPDGDAKPWCHVLKNRRLTWEYCDVPSCSTCGLRQYSQPQFRIKGGLFADIASHPWQAAIFAKHRRSPGERFLCGGILISSCWILSAAHCFQERFPPHHLTVILGRTYRVVPGEEEQKFEVEKYIVHKEFDDDTYDNDIALLQLKSDSSRCAQESSVVRTVCLPPADLQLPDWTECELSGYGKHEALSPFYSERLKEAHVRLYPSSRCTSQHLLNRTVTDNMLCAGDTRSGGPQANLHDACQGDSGGPLVCLNDGRMTLVGIISWGLGCGQKDVPGVYTKVTNYLDWIRDNMRP
- clot stability (T2MR peaks) [2]: unstable after 20-30 minutes

B3: abciximab (antibody, chains of the INN, looked up, V domains shown)
VH: EVQLQQSGTVLARPGASVKMSCEASGYTFTNYWMHWVKQRPGQGLEWIGAIYPGNSDTSYIQKFKGKAKLTAVTSTTSVYMELSSLTNEDSAVYYCTLYDGYYVFAYWGQGTLVTVSA
VL: EIVLTQSPVTLSVTPGDSVSLSCRASRDISNNLHWFQQTSHESPRLLIKYASQSMSGIPSRFSGSGSGTDFTLSINSVETEDFGMYFCQQTNSWPYTFGGGTKLEIK
modifications: Fab
- TEG-determined MA ([3]; abciximab 2 μg/mL): 61.4
- TEG-determined MA ([3]; abciximab 4 μg/mL): 30.4
- TEG-determined MA ([3]; abciximab 8 μg/mL): 22.0
- clot associated and serum associated T2 signal ([4]; 8 μg/mL Reopro®, T2reader): reduces the signal intensity of the clot associated signal and shifts the serum associated signal to lower T2 values
- distribution of T2 signals within the initial water population ([4]; at 0.1 minutes, abciximab 2, 4, 8 μg/mL, patient sample 29494): narrower distribution of T2 signals
- retracted clot and serum water populations in 3D plot ([4]; highest concentration of abciximab (8 μg/mL), patient sample 29488): no longer two phases visible within the clot
